Laboratory results published in paper PMC12363564, “Modulation of the PTPRS proteoglycan switch by antibodies binding to the membrane-proximal fibronectin-type III domain” (The Journal of Biological Chemistry, 2025).

T1: 6xHis-tagged hPTPRS Fn9 (residues 1117-1270) (human, UniProt Q13332 1117-1270)
T1 chain: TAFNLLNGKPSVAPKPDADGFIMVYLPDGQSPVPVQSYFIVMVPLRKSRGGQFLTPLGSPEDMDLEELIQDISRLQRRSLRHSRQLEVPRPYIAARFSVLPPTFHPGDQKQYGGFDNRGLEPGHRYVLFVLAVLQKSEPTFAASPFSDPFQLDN

T2: C-terminally 6xHis tagged mouse PTPRS (mPTPRS) ECD (mouse, UniProt B0V2N1 30-1257)
T2 chain: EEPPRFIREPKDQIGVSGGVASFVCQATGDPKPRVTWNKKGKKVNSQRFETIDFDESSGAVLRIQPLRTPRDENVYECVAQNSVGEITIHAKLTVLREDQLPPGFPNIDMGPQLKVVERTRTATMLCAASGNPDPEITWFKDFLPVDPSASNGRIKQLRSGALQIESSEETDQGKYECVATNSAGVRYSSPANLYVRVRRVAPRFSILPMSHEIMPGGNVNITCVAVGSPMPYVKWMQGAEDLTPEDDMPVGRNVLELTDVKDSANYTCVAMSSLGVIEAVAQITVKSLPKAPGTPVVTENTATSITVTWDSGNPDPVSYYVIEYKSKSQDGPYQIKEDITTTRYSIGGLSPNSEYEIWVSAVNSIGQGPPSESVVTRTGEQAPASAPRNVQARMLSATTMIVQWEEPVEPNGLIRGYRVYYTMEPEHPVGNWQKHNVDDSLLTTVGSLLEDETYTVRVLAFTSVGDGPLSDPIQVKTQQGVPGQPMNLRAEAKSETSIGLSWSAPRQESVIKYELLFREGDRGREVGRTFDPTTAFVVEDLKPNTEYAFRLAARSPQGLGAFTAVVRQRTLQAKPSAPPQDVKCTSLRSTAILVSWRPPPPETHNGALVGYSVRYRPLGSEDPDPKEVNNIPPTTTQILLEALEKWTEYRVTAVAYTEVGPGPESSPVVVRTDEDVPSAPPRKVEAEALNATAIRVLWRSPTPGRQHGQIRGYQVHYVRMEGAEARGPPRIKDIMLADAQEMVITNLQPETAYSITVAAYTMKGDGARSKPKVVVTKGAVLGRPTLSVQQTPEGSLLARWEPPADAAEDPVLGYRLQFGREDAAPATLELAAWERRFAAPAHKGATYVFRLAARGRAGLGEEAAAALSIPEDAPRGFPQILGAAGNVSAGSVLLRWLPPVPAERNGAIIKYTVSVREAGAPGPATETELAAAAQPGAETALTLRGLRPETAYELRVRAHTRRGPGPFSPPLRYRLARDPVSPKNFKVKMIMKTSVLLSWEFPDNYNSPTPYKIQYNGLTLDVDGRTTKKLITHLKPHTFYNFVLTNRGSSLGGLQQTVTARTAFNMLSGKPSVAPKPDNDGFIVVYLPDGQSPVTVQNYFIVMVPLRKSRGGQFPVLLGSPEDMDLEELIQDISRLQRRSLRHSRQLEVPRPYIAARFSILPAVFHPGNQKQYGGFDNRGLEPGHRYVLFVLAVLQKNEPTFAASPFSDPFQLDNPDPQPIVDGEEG


Assays:
[1] = molecular target: T1, 6xHis-tagged hPTPRS Fn9 (residues …); experiment: BLI
[2] = molecular target: T3, C-terminally 6xHis tagged mouse PTPRS (mPTPRS) ECD (Mus musculus, UniProt B0V2N1); experiment: BLI; His-tagged ligand (mPTPRS ECD or hPTPRS Fn9) immobilised on anti-6xHis probes at 100 to 200 nM; antibodies or scFv-Fc fusions as analytes; Gator K buffer (0.02% BSA, 0.002% Tween-20 in PBS, pH 7.4), 37 °C; biphasic (2:1) association model; details: both partners purified
T3 construct: also called mPTPRS ectodomain; PTPRS ectodomain; source: HEK293T, transiently transfected, supernatant; purified (Ni-NTA, HiTrap heparin); not shown: His6, C-terminal, kept

[3] = molecular target: T4, WT human PTPRS (hPTPRS) isoform 1 with a C-terminal HA tag (human, UniProt Q13332); experiment: flow cytometry on cells; HEK293T cells transfected with hPTPRS-HA (WT or Fn9mut) or empty vector, incubated 1 h with the antibody, AF568-labelled anti-mouse IgG; details: one partner purified
T4 construct: human PTPRS isoform 1, open reading frame in pcDNA3.1 (+); also called PTPRS-HA; hPTPRS-HA; source: HEK293T, transfected; in RIPA lysate (immunoprecipitation), on or in cells (flow cytometry, PLA); not shown: HA, C-terminal, kept
T4 sequence (Q13332 30-1948): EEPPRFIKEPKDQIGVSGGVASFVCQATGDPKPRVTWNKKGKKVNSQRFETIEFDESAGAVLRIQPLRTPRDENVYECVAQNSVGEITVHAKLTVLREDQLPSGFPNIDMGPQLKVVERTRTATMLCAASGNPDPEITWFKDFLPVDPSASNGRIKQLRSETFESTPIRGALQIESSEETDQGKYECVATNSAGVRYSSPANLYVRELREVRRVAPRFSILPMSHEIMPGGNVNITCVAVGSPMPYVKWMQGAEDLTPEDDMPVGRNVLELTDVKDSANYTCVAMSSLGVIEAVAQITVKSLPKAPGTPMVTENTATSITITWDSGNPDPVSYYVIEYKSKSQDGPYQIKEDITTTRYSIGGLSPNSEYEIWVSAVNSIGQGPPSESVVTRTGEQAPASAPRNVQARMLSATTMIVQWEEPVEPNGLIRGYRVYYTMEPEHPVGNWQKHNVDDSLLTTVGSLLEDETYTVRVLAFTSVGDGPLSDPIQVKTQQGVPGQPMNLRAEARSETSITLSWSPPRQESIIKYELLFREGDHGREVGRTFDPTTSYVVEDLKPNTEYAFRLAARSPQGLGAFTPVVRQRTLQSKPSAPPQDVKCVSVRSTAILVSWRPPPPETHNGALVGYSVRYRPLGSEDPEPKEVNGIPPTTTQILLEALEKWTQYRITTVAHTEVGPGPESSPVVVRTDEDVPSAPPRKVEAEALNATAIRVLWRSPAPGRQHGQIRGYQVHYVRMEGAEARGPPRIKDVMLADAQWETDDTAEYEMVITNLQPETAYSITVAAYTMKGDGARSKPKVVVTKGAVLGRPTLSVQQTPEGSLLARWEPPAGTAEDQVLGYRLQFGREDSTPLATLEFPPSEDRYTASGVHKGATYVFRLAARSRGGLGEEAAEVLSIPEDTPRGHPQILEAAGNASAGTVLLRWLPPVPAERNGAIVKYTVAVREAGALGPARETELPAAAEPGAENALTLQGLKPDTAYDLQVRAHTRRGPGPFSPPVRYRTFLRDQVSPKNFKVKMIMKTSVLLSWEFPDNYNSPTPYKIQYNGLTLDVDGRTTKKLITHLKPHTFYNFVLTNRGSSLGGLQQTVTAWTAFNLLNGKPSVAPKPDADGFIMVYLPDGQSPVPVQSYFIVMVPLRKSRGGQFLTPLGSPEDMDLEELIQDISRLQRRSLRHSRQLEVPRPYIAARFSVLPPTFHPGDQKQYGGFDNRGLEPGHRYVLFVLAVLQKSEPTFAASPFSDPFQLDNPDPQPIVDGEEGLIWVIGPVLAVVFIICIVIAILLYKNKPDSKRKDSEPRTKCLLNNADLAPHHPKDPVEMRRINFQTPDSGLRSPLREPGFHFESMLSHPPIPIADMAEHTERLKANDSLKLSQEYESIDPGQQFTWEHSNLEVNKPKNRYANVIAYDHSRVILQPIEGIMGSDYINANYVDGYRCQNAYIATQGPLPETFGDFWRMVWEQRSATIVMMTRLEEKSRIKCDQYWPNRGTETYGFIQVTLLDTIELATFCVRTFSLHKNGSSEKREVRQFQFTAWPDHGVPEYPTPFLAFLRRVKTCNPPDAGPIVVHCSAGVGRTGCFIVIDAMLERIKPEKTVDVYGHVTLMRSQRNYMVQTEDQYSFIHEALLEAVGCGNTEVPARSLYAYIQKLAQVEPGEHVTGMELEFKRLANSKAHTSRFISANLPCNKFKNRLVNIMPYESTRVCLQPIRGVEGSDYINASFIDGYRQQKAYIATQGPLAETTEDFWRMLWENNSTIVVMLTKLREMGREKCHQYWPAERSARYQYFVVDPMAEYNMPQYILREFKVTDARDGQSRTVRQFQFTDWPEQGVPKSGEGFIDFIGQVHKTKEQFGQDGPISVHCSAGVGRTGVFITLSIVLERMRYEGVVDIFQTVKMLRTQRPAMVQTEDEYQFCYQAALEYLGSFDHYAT

[4] = molecular target: T2, C-terminally 6xHis tagged mouse PTPRS …; experiment: BLI
[5] = molecular target: T1, 6xHis-tagged hPTPRS Fn9 (residues …); experiment: BLI
[6] = molecular target: T2, C-terminally 6xHis tagged mouse PTPRS …; experiment: SPR
[7] = molecular target: T5, PTPRS^Δ326 (hPTPRS-HA N-terminal truncation lacking Ig-like domains 1 to 3) (Homo sapiens, UniProt Q13332, point mutant); experiment: co-IP; RIPA lysates of HEK293T cells overexpressing HA-tagged full length or truncated hPTPRS incubated with the antibody for 2 h at 4 °C, Protein G Sepharose, anti-HA blot; details: one partner purified
T5 construct: human PTPRS isoform 1, N-terminal truncation lacking Ig-like domains 1 to 3, obtained from WT hPTPRS-HA by site-directed mutagenesis; source: HEK293T, transfected, in RIPA lysate; not shown: HA, C-terminal, kept

[8] = molecular target: T6, PTPRS^Δ1096 (hPTPRS-HA N-terminal truncation lacking the ECD including most of Fn8) (Homo sapiens, UniProt Q13332, point mutant); experiment: as above; details: one partner purified
T6 construct: human PTPRS isoform 1, N-terminal truncation lacking the ECD including most of Fn8, obtained from WT hPTPRS-HA by site-directed mutagenesis; source: HEK293T, transfected, in RIPA lysate; not shown: HA, C-terminal, kept

[9] = molecular target: T3, C-terminally 6xHis tagged mouse PTPRS …; experiment: SPR; Octet SF3; anti-PTPRS Ab immobilised by amine coupling on a PCH sensor chip; analyte mPTPRS ECD 2500 nM to 9.77 nM; 1x PBS with 0.005% Tween-20; multi-cycle kinetics; details: both partners purified
[10] = molecular target: T3, C-terminally 6xHis tagged mouse PTPRS …; experiment: BLI; data not shown; 9H5 on C-terminally 6xHis tagged mPTPRS ECD immobilised on an anti-6xHis probe; details: both partners purified

Row | Kd [1] [nM] | Kd [2] [nM] | mean fluorescence relative to 22H8 [3] [fold] | koff [4] [s⁻¹] | koff [5] [s⁻¹] | koff [6] [s⁻¹] | binding result [7] | binding result [8] | Kd [9] [nM] | binding result [10] | Binder
1 | 6.03 | 122 ± 1.9 | ~2 | 0.083 | 0.003 | 0.00079 | binds | binds | 95 | – | 13G5 (mouse monoclonal antibody, IgG2b/κ) (antibody, V domains shown, VH of 13G5; constant region of the mouse IgG2b heavy chain; VL of 13G5; constant region of the mouse κ light chain; IgG2b/κ; also called anti-PTPRS Ab 13G5; source: production contracted to Viva Biotech) VH: EVKLVESGGGLVQPGGSLKLSCATSGFTFSDYYMYWVRQTPEKRLEWVAYISNGGGSTYYPDTVKGRFTISRDNAKNTLYLQMSRLKSEDTAMYYCARHVYYGRNYAMDYWGQGTSVTVSS VL: DIQMTQTTSSLSASLGDRVTISCRASQDISNYLNWYQQKPDGTVKLLIYYTSRLHSGVPSRFSGSGSGTDYSLTISNLEQEDIATYFCQQGNTLPYTFGGGTKLEIK
2 | – | – | – | – | – | – | – | – | – | no binding | 9H5 (mouse monoclonal antibody, IgG1/κ) (antibody, V domains shown, VH of 9H5; constant region of the mouse IgG1 heavy chain; VL of 9H5; constant region of the mouse κ light chain; IgG1/κ; source: production contracted to Viva Biotech) VH: QVQLVETGGGLVRPGNSLKLSCVTSGFTFSNYRMHWLRQPPGKRLEWIAVITVKSDNYGANYAESVKGRFTISRDDSKSSVYLQMNRLREEDTATYYCSRSVYYGYVLAFDYWGQGTTLTVSS VL: DIQMTQTTSSLSASLGDRVTISCRASQDISNYLNWYQQKPDGTVKLLIYYTSRLHSGVPSRFSGSGSGTDYSLTISNLEQEDIATYFCQQGNTLPWTFGGGTKLEIK
